Reference: the supplement of paper PMC9732359
± gives the uncertainty stated by the source.

Test: protein stability index of a GFP-peptide fusion (yeast GPS) (PSI 1-4); higher = more stable; sorted into four equal gates, so the index is relative within each strain
Outline: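 Plasmids in a pooled yeast library fused tiled 17-residue yeast protein peptides downstream of GFP and also expressed Cherry. Mid-log cultures grown without leucine were sorted into four equal gates by GFP/Cherry fluorescence ratio. Each gate's plasmids were PCR-amplified and Illumina-sequenced, and reads were matched to strains by barcodes. The protein stability index is derived by multiplying each gate's read frequency by its gate number and summing the results.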

## HVPEKKSTDLTPKGNES [MTR3]
doa10∆
  protein stability index: 2.97 ± 0.12
pdr5∆
  protein stability index: 2.43 ± 0.13
san1∆
  protein stability index: 2.66 ± 0.084
ubr1∆
  protein stability index: 3.11 ± 0.096

## AFGSSATDISGELRDYI [YJR042W/NUP85]
doa10∆
  protein stability index: 3.26 ± 0.14
pdr5∆
  protein stability index: 3.54 ± 0.13
san1∆
  protein stability index: 2.81 ± 0.11
ubr1∆
  protein stability index: 3.28 ± 0.083

## KIRCFRYISTLTLYLFQ [IRR1]
doa10∆
  protein stability index: 1.69 ± 0.073
pdr5∆
  protein stability index: 1.47 ± 0.077
san1∆
  protein stability index: 1.64 ± 0.15
ubr1∆
  protein stability index: 1.51 ± 0.14

## ELLETVSLTKRKQEREI [YIL149C/MLP2]
doa10∆
  protein stability index: 1.43 ± 0.095
pdr5∆
  protein stability index: 1.61 ± 0.07
san1∆
  protein stability index: 1.5 ± 0.19
ubr1∆
  protein stability index: 1.12 ± 0.036

## AFAGSKNDEVLGLLLPI [RPN1]
pdr5∆
  protein stability index: 3.2 ± 0.14
san1∆
  protein stability index: 3.05 ± 0.17
ubr1∆
  protein stability index: 3.19 ± 0.13

## YEKELMGDELTRSHFNA [RPN6]
doa10∆
  protein stability index: 2.96 ± 0.13
pdr5∆
  protein stability index: 3.39 ± 0.15
san1∆
  protein stability index: 3.34 ± 0.057
ubr1∆
  protein stability index: 3.48 ± 0.1

## KRPPEIMSTEAHVNKVT [SIR4]
doa10∆
  protein stability index: 2.99 ± 0.19
pdr5∆
  protein stability index: 2.96 ± 0.086
san1∆
  protein stability index: 2.92 ± 0.1
ubr1∆
  protein stability index: 2.73 ± 0.12

## NNPANNTNNNNSTGHSS [SWI1]
doa10∆
  protein stability index: 2.58 ± 0.036
pdr5∆
  protein stability index: 2.15 ± 0.035
san1∆
  protein stability index: 2.59 ± 0.034
ubr1∆
  protein stability index: 2.12 ± 0.036

## MLLITSGDSGVYTLACR [RPC11]
doa10∆
  protein stability index: 1.58 ± 0.1
pdr5∆
  protein stability index: 2.45 ± 0.13
san1∆
  protein stability index: 3 ± 0.093
ubr1∆
  protein stability index: 2.46 ± 0.088

## FYKLNMPDEFNTLYTAI [SRP72]
doa10∆
  protein stability index: 2.5 ± 0.05
pdr5∆
  protein stability index: 2.64 ± 0.053
san1∆
  protein stability index: 2.66 ± 0.034
ubr1∆
  protein stability index: 2.65 ± 0.043

## RMAKLCARFLGNRGFSI [RPO31]
doa10∆
  protein stability index: 2.35 ± 0.2
ubr1∆
  protein stability index: 2.93 ± 0.2

## MPNIELYLKVIPMDFIR [SSN2]
doa10∆
  protein stability index: 2.22 ± 0.072
pdr5∆
  protein stability index: 2.14 ± 0.076
san1∆
  protein stability index: 1.95 ± 0.082
ubr1∆
  protein stability index: 2.54 ± 0.079

## TEQIKMRILSNDITNLQ [SRB8]
doa10∆
  protein stability index: 2.33 ± 0.042
pdr5∆
  protein stability index: 2.31 ± 0.037
san1∆
  protein stability index: 2.15 ± 0.043
ubr1∆
  protein stability index: 2.16 ± 0.029

## EKPLTPLKYTKLIAAAE [SNF6]
doa10∆
  protein stability index: 1.25 ± 0.23
pdr5∆
  protein stability index: 1.27 ± 0.12
san1∆
  protein stability index: 1.22 ± 0.21
ubr1∆
  protein stability index: 1.15 ± 0.2

## KNDSAEVRQETQPKAEA [NUT1]
doa10∆
  protein stability index: 3.35 ± 0.15
pdr5∆
  protein stability index: 3.26 ± 0.11
san1∆
  protein stability index: 3.36 ± 0.055
ubr1∆
  protein stability index: 3.38 ± 0.083

## LEGEELAFYLRRLTAKK [RPS8A]
doa10∆
  protein stability index: 1.9 ± 0.068
pdr5∆
  protein stability index: 1.75 ± 0.068
san1∆
  protein stability index: 1.93 ± 0.1
ubr1∆
  protein stability index: 3.05 ± 0.099

## VTYTEHAKRKTVTSLDV [HHF1]
doa10∆
  protein stability index: 3.25 ± 0.23
ubr1∆
  protein stability index: 2.68 ± 0.095

## DNEEWMNDVINTEEVNR [LIN1]
doa10∆
  protein stability index: 3.2 ± 0.071
pdr5∆
  protein stability index: 3.46 ± 0.079
san1∆
  protein stability index: 3.23 ± 0.044
ubr1∆
  protein stability index: 3.39 ± 0.085

## KFKLLNGLAIRRAAYGV [RPS3]
doa10∆
  protein stability index: 2 ± 0.046
pdr5∆
  protein stability index: 2.15 ± 0.047
san1∆
  protein stability index: 1.88 ± 0.062
ubr1∆
  protein stability index: 1.86 ± 0.048

## TKPSLRKASCIWLLSYI [ECM29]
doa10∆
  protein stability index: 1.75 ± 0.054
pdr5∆
  protein stability index: 1.88 ± 0.051
san1∆
  protein stability index: 1.86 ± 0.077
ubr1∆
  protein stability index: 1.86 ± 0.038

## LLIADSRRPEPKKFGGK [RPS16A]
doa10∆
  protein stability index: 3 ± 0.091
pdr5∆
  protein stability index: 3.12 ± 0.077
san1∆
  protein stability index: 3.23 ± 0.065
ubr1∆
  protein stability index: 3.07 ± 0.05

## ELNDLKWGRNQPVNINL [YMR129W/POM152]
doa10∆
  protein stability index: 2.8 ± 0.1
pdr5∆
  protein stability index: 2.72 ± 0.086
san1∆
  protein stability index: 2.83 ± 0.11
ubr1∆
  protein stability index: 2.56 ± 0.068

## KCKTRAQLTLKRCKHFE [RPL42A]
doa10∆
  protein stability index: 2.65 ± 0.088
pdr5∆
  protein stability index: 2.58 ± 0.085
san1∆
  protein stability index: 2.85 ± 0.064
ubr1∆
  protein stability index: 2.68 ± 0.061

## TEHLTELSDNEENFEAT [YCG1]
doa10∆
  protein stability index: 2.87 ± 0.14
pdr5∆
  protein stability index: 3.15 ± 0.16
san1∆
  protein stability index: 3.54 ± 0.099
ubr1∆
  protein stability index: 2.96 ± 0.12

## EFENKFQNSYKPALKVS [YMR129W/POM152]
pdr5∆
  protein stability index: 3.11 ± 0.22
san1∆
  protein stability index: 3.04 ± 0.2

## SEKGFSKEQIHGSIIIL [YCS4]
doa10∆
  protein stability index: 2.71 ± 0.12
pdr5∆
  protein stability index: 2.37 ± 0.077
san1∆
  protein stability index: 2.76 ± 0.076
ubr1∆
  protein stability index: 2.73 ± 0.087

## DPNLELDQVGVPKSIAK [RPO21]
doa10∆
  protein stability index: 3.48 ± 0.23
pdr5∆
  protein stability index: 3.18 ± 0.14
san1∆
  protein stability index: 2.44 ± 0.25
ubr1∆
  protein stability index: 3.11 ± 0.16

## KDRISHEVVQDDSFSLL [PCI8]
doa10∆
  protein stability index: 3.19 ± 0.082
pdr5∆
  protein stability index: 3.46 ± 0.071
san1∆
  protein stability index: 3.19 ± 0.056
ubr1∆
  protein stability index: 3.05 ± 0.075

## TTVITVFLEFSLNFIPI [YML103C/NUP188]
doa10∆
  protein stability index: 1.42 ± 0.038
pdr5∆
  protein stability index: 1.33 ± 0.032
san1∆
  protein stability index: 1.83 ± 0.064
ubr1∆
  protein stability index: 1.58 ± 0.023

## IVWRFISENTFPNGFKN [RPC34]
doa10∆
  protein stability index: 1.84 ± 0.06
pdr5∆
  protein stability index: 2.05 ± 0.042
san1∆
  protein stability index: 2.06 ± 0.077
ubr1∆
  protein stability index: 2.33 ± 0.046

## DLSLLGYCDDIAAMVAQ [SIR2]
doa10∆
  protein stability index: 2.56 ± 0.06
pdr5∆
  protein stability index: 2.08 ± 0.043
san1∆
  protein stability index: 2.82 ± 0.052
ubr1∆
  protein stability index: 2.24 ± 0.041

## RDLILTEYGRKYNVNIS [PRP8]
doa10∆
  protein stability index: 2.2 ± 0.18
pdr5∆
  protein stability index: 2.42 ± 0.098
san1∆
  protein stability index: 3.14 ± 0.23
ubr1∆
  protein stability index: 2.28 ± 0.059

## ALFLSKINRPPVSVSRI [RPL18A]
doa10∆
  protein stability index: 2.29 ± 0.14
pdr5∆
  protein stability index: 1.63 ± 0.076
san1∆
  protein stability index: 1.6 ± 0.14
ubr1∆
  protein stability index: 2.16 ± 0.16

## SAAMSIDKLSDVVMKAT [PRP8]
doa10∆
  protein stability index: 2.46 ± 0.048
pdr5∆
  protein stability index: 2.6 ± 0.046
san1∆
  protein stability index: 2.45 ± 0.047
ubr1∆
  protein stability index: 2.37 ± 0.042

## YDSRSGTHNMYKEIRDV [RPL20A]
doa10∆
  protein stability index: 3.11 ± 0.069
pdr5∆
  protein stability index: 3.06 ± 0.064
san1∆
  protein stability index: 3.16 ± 0.043
ubr1∆
  protein stability index: 3.18 ± 0.056

## IQAGKFDNKSTSEEQEA [SNF2]
doa10∆
  protein stability index: 3.28 ± 0.068
pdr5∆
  protein stability index: 3.36 ± 0.16
san1∆
  protein stability index: 2.84 ± 0.17
ubr1∆
  protein stability index: 2.94 ± 0.12

## NDTSSGTNAMLPSPESL [SNF5]
doa10∆
  protein stability index: 2.73 ± 0.042
pdr5∆
  protein stability index: 2.84 ± 0.049
san1∆
  protein stability index: 2.74 ± 0.035
ubr1∆
  protein stability index: 2.8 ± 0.042

## SSTKPPGSVNSAAKYKD [NUT1]
doa10∆
  protein stability index: 2.68 ± 0.064
pdr5∆
  protein stability index: 2.64 ± 0.061
san1∆
  protein stability index: 2.53 ± 0.1
ubr1∆
  protein stability index: 2.93 ± 0.065

## VAESFTDEADSSMTEAS [SNF2]
doa10∆
  protein stability index: 3.46 ± 0.12
pdr5∆
  protein stability index: 3.28 ± 0.11
san1∆
  protein stability index: 3.38 ± 0.053
ubr1∆
  protein stability index: 3.14 ± 0.096

## YKTSKAAQDVWNRADNH [FAS1]
doa10∆
  protein stability index: 2.96 ± 0.21
pdr5∆
  protein stability index: 2.98 ± 0.17
san1∆
  protein stability index: 1.71 ± 0.29

## ARKYLQTRWGLPSGRQD [FAS2]
doa10∆
  protein stability index: 2.54 ± 0.087
pdr5∆
  protein stability index: 2.09 ± 0.12
san1∆
  protein stability index: 2.12 ± 0.14
ubr1∆
  protein stability index: 3.16 ± 0.11

## IIPTTLEEQQQLEDESS [YML103C/NUP188]
doa10∆
  protein stability index: 1.88 ± 0.081
pdr5∆
  protein stability index: 1.66 ± 0.08
san1∆
  protein stability index: 2.67 ± 0.081
ubr1∆
  protein stability index: 2.86 ± 0.099

## DNNSSLNVSNTKENGDF [PRP8]
doa10∆
  protein stability index: 3.17 ± 0.083
pdr5∆
  protein stability index: 2.84 ± 0.084
san1∆
  protein stability index: 2.9 ± 0.058
ubr1∆
  protein stability index: 3.39 ± 0.074

## VVLSFSGLNADSRILIE [PRE6]
doa10∆
  protein stability index: 2.87 ± 0.15
pdr5∆
  protein stability index: 3.26 ± 0.2
san1∆
  protein stability index: 3.19 ± 0.072
ubr1∆
  protein stability index: 3.3 ± 0.13

## SPMGNAYSMGAQNQGGQ [PGD1]
doa10∆
  protein stability index: 2.57 ± 0.062
pdr5∆
  protein stability index: 2.91 ± 0.069
san1∆
  protein stability index: 2.91 ± 0.064
ubr1∆
  protein stability index: 2.71 ± 0.043

## AEHSQNKIDQSLQYIER [YJL041W/NSP1]
doa10∆
  protein stability index: 3.17 ± 0.069
pdr5∆
  protein stability index: 3.16 ± 0.043
san1∆
  protein stability index: 3.21 ± 0.049
ubr1∆
  protein stability index: 3.04 ± 0.048

## KVLAAHTKFEVAIGLNG [RRP40]
doa10∆
  protein stability index: 2.44 ± 0.088
pdr5∆
  protein stability index: 2.56 ± 0.062
san1∆
  protein stability index: 2.34 ± 0.072
ubr1∆
  protein stability index: 2.89 ± 0.057

## QTEIKDIILGQNIKAPS [PRP8]
doa10∆
  protein stability index: 2.6 ± 0.087
pdr5∆
  protein stability index: 3.04 ± 0.074
san1∆
  protein stability index: 2.58 ± 0.11
ubr1∆
  protein stability index: 2.78 ± 0.07

## LNIKPLLDAGCKVVAEM [SKP1]
doa10∆
  protein stability index: 2.44 ± 0.083
pdr5∆
  protein stability index: 2.51 ± 0.081
san1∆
  protein stability index: 1.85 ± 0.1
ubr1∆
  protein stability index: 2.47 ± 0.054

## YGRKSFRNNKNDNYSSD [REC8]
doa10∆
  protein stability index: 3.28 ± 0.096
pdr5∆
  protein stability index: 3.22 ± 0.068
san1∆
  protein stability index: 3.32 ± 0.05
ubr1∆
  protein stability index: 3.14 ± 0.059

## ENIPVALCKNRKCQFRT [POP1]
doa10∆
  protein stability index: 2.46 ± 0.048
pdr5∆
  protein stability index: 2.68 ± 0.059
san1∆
  protein stability index: 2.32 ± 0.079
ubr1∆
  protein stability index: 1.96 ± 0.035

## ANLRVLNSYWVNQDSTY [RPL15A]
doa10∆
  protein stability index: 2.62 ± 0.072
pdr5∆
  protein stability index: 2.23 ± 0.067
san1∆
  protein stability index: 2.78 ± 0.058
ubr1∆
  protein stability index: 2.37 ± 0.064

## IGFTIKEYENHSGELMR [SMC1]
doa10∆
  protein stability index: 2.53 ± 0.14
pdr5∆
  protein stability index: 2.79 ± 0.059
san1∆
  protein stability index: 2.06 ± 0.12
ubr1∆
  protein stability index: 2.86 ± 0.14
